In paper PMC12618784:

How the values were obtained:
Experiment in all cases: TurboID biotin proximity labelling with mass spectrometry
Details in all cases: 3rd instar larval muscle tissue (mef2-Gal4); parent: 1
Troponin-C = target: Troponin-C
Prohibitin2 = target: Prohibitin2
SesB = target: SesB
ATPsynD, SynO = target: ATPsynD, SynO

Question: Which results are given for “Dmel\Tmem43wt::TurboID (from UniProt Q9VSB9) p.S333L”?
Answer: ratio to parent (Troponin-C): 0.07; ratio to parent (Prohibitin2): 0.18; ratio to parent (SesB): 0.29; ratio to parent (ATPsynD, SynO): 0.3
